The results in this text go back to publication PMC5360526 (Hepatology (Baltimore, Md.), 2017).

For the assay, the target named is Recombinant human MATα1 (human, UniProt Q00266 1-395). The assay is described as follows: pull-down.
Sequence of Recombinant human MATα1 (Q00266 whole entry): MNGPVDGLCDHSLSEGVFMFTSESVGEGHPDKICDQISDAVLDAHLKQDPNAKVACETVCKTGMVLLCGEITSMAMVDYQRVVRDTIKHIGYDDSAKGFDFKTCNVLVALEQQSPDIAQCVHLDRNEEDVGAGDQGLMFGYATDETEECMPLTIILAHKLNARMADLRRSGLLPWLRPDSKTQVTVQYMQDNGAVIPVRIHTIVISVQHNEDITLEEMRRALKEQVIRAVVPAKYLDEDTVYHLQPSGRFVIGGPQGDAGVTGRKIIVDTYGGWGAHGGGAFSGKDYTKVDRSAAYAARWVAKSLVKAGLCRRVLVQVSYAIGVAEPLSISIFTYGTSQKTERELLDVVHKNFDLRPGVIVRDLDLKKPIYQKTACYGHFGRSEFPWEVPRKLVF

B1: Recombinant human PHB1 (natural protein, UniProt P35232 1-272, looked up)
chain: MAAKVFESIGKFGLALAVAGGVVNSALYNVDAGHRAVIFDRFRGVQDIVVGEGTHFLIPWVQKPIIFDCRSRPRNVPVITGSKDLQNVNITLRILFRPVASQLPRIFTSIGEDYDERVLPSITTEILKSVVARFDAGELITQRELVSRQVSDDLTERAATFGLILDDVSLTHLTFGKEFTEAVEAKQVAQQEAERARFVVEKAEQQKKAAIISAEGDSKAAELIANSLATAGDGLIELRKLEAAEDIAYQLSRSRNITYLPAGQSVLLQLPQ
Consider B1, for which the binding result is reported as “binds”.
